From patent US20170369590A1 (Genmab, published 2017)

B1: HuMab 005 (antibody, V domains shown)
VH: EVQLVQSGAEVKKPGESLKISCKASGYSFHFYWIGWVRQMPGKGLEWMGSIYPGDSDTRYRPSFQGQVTISADKSISTAYLQWTSLKASDTAIYYCARQRGDYYYFYGMDVWGQGTTVTVSS
VL: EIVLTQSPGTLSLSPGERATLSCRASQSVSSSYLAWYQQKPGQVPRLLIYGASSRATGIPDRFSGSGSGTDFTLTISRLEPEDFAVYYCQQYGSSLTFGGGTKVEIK
notes: also called PC1014-005; TH1014-005
B2: HuMab 060 (antibody, V domains shown)
VH: EVQLVQSGAEVKKPGESLKISCKGSGYRFTSYWIGWVRQMPGKGLEWMGSIYPGDSYTRNSPSFQGQVTISADKSIATAYLQWNSLKASDTAMYYCARHAGDFYYFDGLDVWGQGTTVTVSS
VL: not shown
notes: also called PC1014-060

Assays:
[1] = target: T1, HER2ECDHis (human, UniProt P04626 23-653, biotinylated in the cross-block ELISA (sites not given)); experiment: ELISA; competitor C1
T1 construct: range 1-653; expressed in HEK-293F; also called soluble HER2; biotinylated HER2ECDHis

[2] = target: T1, HER2ECDHis; experiment: ELISA; competitor F5
Protocol: (§1) Next, the ELISA wells were washed with PBST (PBS supplemented with 0.05% Tween-20 [Sigma-Aldrich, Zwijndrecht, The Netherlands]) and blocked for one hour at room temperature (RT) with PBSTC (PBST supplemented 2% [v/v] chicken serum [Gibco, Paisley, Scotland]). The ELISA wells were then washed with PBST and incubated for one hour at RT with HER2ECDHis serially diluted in PBSTC (0.25-2 μg/mL in 2-fold dilutions). […] The plate was thereafter washed with PBST and incubated for one hour with 0.1 μg/mL Streptavidin-poly-HRP (Sanquin, Amsterdam, The Netherlands) diluted in PBST. After washing, the reaction was visualized through a 15 minutes incubation with 2,2′-azino-bis (3-ethylbenzothiazoline-6-sulfonic acid) (ABTS: one ABTS tablet diluted in 50 mL ABTS buffer (Roche Diagnostics, Almere, The Netherlands)) at RT protected from light. The colorization was stopped by adding an equal volume of oxalic acid (Sigma-Aldrich, Zwijndrecht, The Netherlands). Fluorescence at 405 nm was measured on a microtiter plate reader (Biotek Instruments, Winooski, USA).
(§2) Each HER2 antibody was coated to the ELISA wells at the sub-optimal dose that was determined as described above. After blocking of the ELISA wells, the wells were incubated with the predetermined concentration of 1 μg/mL biotinylated HER2ECDHis in the presence or absence of an excess of a second (competitor) HER2 antibody. The ELISA was then performed as described above. […] Percentage competition was then determined as 100 minus the percentage of inhibition.

[3] = target: T1, HER2ECDHis; experiment: ELISA; competitor 005
Protocol: as §1, §2

[4] = target: T1, HER2ECDHis; experiment: ELISA; competitor 006
Protocol: as §1, §2

[5] = target: T1, HER2ECDHis; experiment: ELISA; competitor 059
Protocol: as §1, §2

[6] = target: T1, HER2ECDHis; experiment: ELISA; competitor 060
Protocol: as §1, §2

[7] = target: T1, HER2ECDHis; experiment: ELISA; competitor 106
Protocol: as §1, §2

[8] = target: T1, HER2ECDHis; experiment: ELISA; competitor 111
Protocol: as §1, §2

[9] = target: T1, HER2ECDHis; experiment: ELISA; competitor Pert
Protocol: as §1, §2

[10] = target: T1, HER2ECDHis; experiment: ELISA; competitor Tras
Protocol: as §1, §2

[11] = target: T2, human epidermal growth factor receptor 2 (HER2), membrane-bound on cells (human, UniProt P04626 23-1255); experiment: cell-based or functional assay
[12] = target: T2, human epidermal growth factor receptor …; experiment: cell-based or functional assay; remark: listed apart in the source
[13] = target: T2, human epidermal growth factor receptor …; experiment: cell-based or functional assay; remark: listed apart in the source

Binder	% binding vs no competitor [1] [%]	% binding vs no competitor [2] [%]	% binding vs no competitor [3] [%]	% binding vs no competitor [4] [%]	% binding vs no competitor [5] [%]	% binding vs no competitor [6] [%]	% binding vs no competitor [7] [%]	% binding vs no competitor [8] [%]	% binding vs no competitor [9] [%]	% binding vs no competitor [10] [%]	% cells killed, AU565, anti-kappa-ETA'-conjugated [11] [%]	EC50 of cell kill, AU565, anti-kappa-ETA'-conjugated [11] [µg/mL]	% cells killed, A431, anti-kappa-ETA'-conjugated [12] [%]	EC50 of cell kill, A431, anti-kappa-ETA'-conjugated [12] [µg/mL]	EC50, fab-CypHer5E internalization, AU565 [13] [µg/mL]	Maximal MFI, fab-CypHer5E internalization, AU565 [13] [MFI]
B1	157	227	18	15	22	12	54	32	115	126	69.7	0.0151	88.5	~0.0101	0.0214	95100
B2	108	126	30	6	14	19	37	35	99	106	64.3	0.0794	85	~0.01	0.0362	68200
